Data reported in publication PMC6547439.
Numbering of substitutions follows the chain as printed. Like-named read-outs stand apart in the source and are kept apart here.

Tests used:
[1] = target: T1, human Argonaute-2 loaded with miR-122 (hAgo2:miR-122) (Homo sapiens, UniProt Q9UKV8 1-859); assay: EMSA
[2] = target: T1, human Argonaute-2 loaded with miR-122 …; assay: EMSA; remark: listed apart in the source

T1 sequence (Q9UKV8 whole entry): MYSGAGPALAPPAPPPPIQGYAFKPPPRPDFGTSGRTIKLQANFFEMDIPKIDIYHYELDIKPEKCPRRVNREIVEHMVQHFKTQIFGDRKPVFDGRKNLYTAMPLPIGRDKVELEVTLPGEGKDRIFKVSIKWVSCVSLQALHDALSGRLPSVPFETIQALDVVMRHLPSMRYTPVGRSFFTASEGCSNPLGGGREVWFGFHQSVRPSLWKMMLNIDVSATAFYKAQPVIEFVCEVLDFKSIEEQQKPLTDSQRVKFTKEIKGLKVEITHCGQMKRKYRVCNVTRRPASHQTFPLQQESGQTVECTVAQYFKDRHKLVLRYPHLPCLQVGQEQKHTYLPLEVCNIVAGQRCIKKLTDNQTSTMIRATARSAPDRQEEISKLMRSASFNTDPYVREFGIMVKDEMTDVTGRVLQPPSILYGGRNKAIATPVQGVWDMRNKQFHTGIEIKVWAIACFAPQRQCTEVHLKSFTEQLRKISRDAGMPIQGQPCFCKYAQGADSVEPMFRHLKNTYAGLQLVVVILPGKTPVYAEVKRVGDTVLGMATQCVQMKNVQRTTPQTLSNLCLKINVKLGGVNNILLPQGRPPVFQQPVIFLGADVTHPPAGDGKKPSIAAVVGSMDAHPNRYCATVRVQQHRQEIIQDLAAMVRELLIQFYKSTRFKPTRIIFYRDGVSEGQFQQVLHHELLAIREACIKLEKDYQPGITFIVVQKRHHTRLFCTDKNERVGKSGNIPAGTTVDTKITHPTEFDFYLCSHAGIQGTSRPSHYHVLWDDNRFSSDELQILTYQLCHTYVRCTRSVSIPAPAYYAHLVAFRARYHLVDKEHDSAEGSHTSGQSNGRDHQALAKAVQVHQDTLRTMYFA

B1: miR-122 guide / HCV S2p3,4 1-42 target (mixed)
RNA 1: UGGAGUGUGACAAUGGUGUUUGU
RNA 2: ACCUGCCCCUAAUAGGGGCGACACUCCGCCAUGAAUCACAGC
modifications: 5'-phosphate on miR-122 guide
- Kd [1]: 0.063 ± 0.01 nM

B2: miR-122 guide / HCV 1-42 WT target (mixed)
RNA 1: UGGAGUGUGACAAUGGUGUUUGU
RNA 2: B1 RNA 2 with A40U, G41C
modifications: 5'-phosphate on miR-122 guide
- Kd [2]: 0.25 ± 0.031 nM
